# Measured values published in the supplement of paper PMC10126150.
# ± gives the standard deviation of the averaged measurements.
# System: ATP
# Test: switch fluorescence ratio, 500 uM ATP over buffer (Cy3 cluster intensity, sum of 5 cycles each) (fold (ratio)); higher = stronger signal-on switching upon ATP binding; sequences stand for … in TCGTCGGCAGCGTCAGATGTGTATAAGAGACAGTTTTTTTTTTTTTTTTTTTTTTTTT…TC
# Settings: aptamer strand: ATP DNA aptamer (quencher-CACCTGGGGGAGTATTGCGGAGGAAGG + anchor), 100 nM annealed; ATP concentration: 500 uM
# Procedure, shortened: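 After annealing to 100 nM quencher-labelled ATP aptamer, Cy3-labelled switching-strand clusters on a modified Illumina MiSeq flow-cell were imaged in selection buffer. A second image followed after 15 min with 500 uM ATP at 22 °C, and five such buffer/ATP cycles were done, each separated by NaOH stripping and re-annealing. The fluorescence ratio, averaged per switch-domain sequence, is summed target-cycle over summed buffer-cycle Cy3 intensity per cluster, with clusters outside 100-1000 RFU excluded.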
# 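Also: ATP exposure 15 min at 22 °C before imaging.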
row,Sequence,switch fluorescence ratio
1,TTCAGCGTCT,0.975 ± 0.043
2,TTATGGGAAC,0.97391 ± 0.00081
3,AACTTAACGA,1.0744 ± 0.00011
4,TATGGAGGTT,0.969 ± 0.0074
5,TGGAACCGGA,1.02 ± 0.011
6,TCCGAACCTT,1.88 ± 0.086
7,TATTTGATGG,0.992 ± 0.021
8,ATAGAGGGAT,0.98 ± 0.026
9,AAGTTAATGT,1 ± 0.022
10,GCGGGTCTGG,1.03 ± 0.022
11,ACTAAGGCTC,1.04 ± 0.051
12,GATATTAGAT,1.02 ± 0.046
13,TTCTAGGAAT,1.02 ± 0.059
14,TTAAAAGTAT,1.01 ± 0.043
15,GGTGGAGAGC,0.99885 ± 0.00089
16,CCGAATTGGG,1.01 ± 0.032
17,ACGGTGGGTA,1 ± 0.038
18,CGACGAGGGG,1 ± 0.03
19,GTACCCCAGG,3.5 ± 3.3
20,ATTGGAGTAT,0.9776 ± 0.0089
21,ATTACAACGA,1.015 ± 0.0032
22,CCTGGTTTTG,1.04 ± 0.028
23,CTAAGTTCTT,0.987 ± 0.008
24,AGCGAGGGGC,1.02 ± 0.035
25,TTTAGTCATT,0.989 ± 0.04

row,Sequence,switch fluorescence ratio
1,GTGGCTTGTG,1 ± 0.029
2,TTAAAACTCA,1.04 ± 0.018
3,ACTGAGTGGC,1.06 ± 0.029
4,GTTATATGTT,1 ± 0.03
5,TTTCAATGGT,1 ± 0.045
6,CAAGGCATGG,1.05 ± 0.033
7,GGGGAAGAGG,0.983 ± 0.011
8,TTTTGTATTA,0.99 ± 0.029
9,AAACCAGGTA,1.18 ± 0.048
10,TATGCATGGA,1.009 ± 0.0082
11,TTAGCCACGC,0.9902 ± 0.0029
12,TTCGTTAGCA,1.54 ± 0.8
13,TATGTCTCTC,0.97458 ± 0.00069
14,CTGGTACGAC,1.13 ± 0.016
15,GAAACATGCT,1.01 ± 0.052
16,AGGGGAGGGG,1.02 ± 0.042
17,GGGGTTAAAG,0.977 ± 0.022
18,GCTCATAGAT,0.988 ± 0.013
19,CCTGGGGTTT,1.09 ± 0.15
20,TCGGCTTGTT,1.02 ± 0.02
21,GCGGCCGTTG,0.965 ± 0.064
22,TGCGTGAAGT,1.041 ± 0.0091
23,AGTCGGGGGA,1.01 ± 0.023
24,CCAAGGAGGG,0.999 ± 0.017
25,CCTCGACAGC,3.43 ± 0.42

row,Sequence,switch fluorescence ratio
1,AACTGGACTC,1.14 ± 0.013
2,TGAGATTAGT,1.01 ± 0.026
3,GCTTTTTCTT,1.018 ± 0.004
4,CAATAGGCGC,1.01 ± 0.021
5,GGCACTAGAC,1.09 ± 0.11
6,CGCTCCGGAG,1.18 ± 0.14
7,GTTAAAATTT,1.001 ± 0.0014
8,AAGTTGGATG,0.977 ± 0.019
9,GAGTATTGGG,0.9897 ± 0.0087
10,TAGGAGGCTA,0.976 ± 0.035
11,TGATTTGGTT,0.9903 ± 0.0083
12,TTTTGGTAAC,1.014 ± 0.0072
13,GCTTGGACGG,1.02 ± 0.055
14,TTGGGGGTCT,0.968 ± 0.044
15,ATGTCTTGGC,0.998 ± 0.03
16,CTGGCTTGAC,0.983 ± 0.0052
17,TAAGATGGAG,1 ± 0.021
18,AAGTTCGAGA,1.002 ± 0.0016
19,ATGAGCGTCA,0.9904 ± 0.0017
20,GATTGTATCA,0.99 ± 0.014
21,TGCCAATATG,1.06 ± 0.014
22,AGGCAATTTG,1 ± 0.071
23,GGGGCAGGAT,1.22 ± 0.34
24,GACAGGGGAG,1 ± 0.018
25,GATGGGTATG,0.995 ± 0.01

row,Sequence,switch fluorescence ratio
1,CACTAGTAGA,1.03 ± 0.028
2,TTGGTGTTTA,1.01 ± 0.022
3,CTGGGACAAA,1.001 ± 0.0016
4,TGGTGAAAAG,0.97 ± 0.059
5,TTTTTCAGGG,1.01 ± 0.026
6,TTTTTGTAAG,0.998 ± 0.043
7,AAAAAGGTTC,0.991 ± 0.017
8,CGGGGGCAGT,1.006 ± 0.0067
9,TCCCAGAACG,1.062 ± 0.0077
10,AAGAAAGGCA,0.998 ± 0.033
11,TCTGGGGGGA,1.01 ± 0.019
12,GATGAGGTTC,0.967 ± 0.053
13,CGGACGACGG,1.01 ± 0.027
14,AAGGTTATTA,1 ± 0.023
15,TTAAGGGATC,0.957 ± 0.038
16,AAAGAACCG,1.085 ± 0.0014
17,TCATTAGGGG,0.994 ± 0.041
18,CATGGGCAGC,0.997 ± 0.016
19,TGGGAATGGT,1.01 ± 0.048
20,GGTCTGGGAT,0.9939 ± 0.0096
21,CCAGTAAATT,0.993 ± 0.046
22,AGAACAGGTG,3.18 ± 0.27
23,TGTTTTGGTG,1.01 ± 0.027
24,AGGGTTAGGG,1.02 ± 0.03
25,AATGTCAGAG,0.986 ± 0.02

row,Sequence,switch fluorescence ratio
1,GAAGGTATGT,0.96567 ± 1.1e-05
2,ACGGTGTATG,0.989 ± 0.031
3,CCTTACCTGT,1.07 ± 0.065
4,AGGGGGAAAT,0.987 ± 0.035
5,GCGGGACTGG,1.04 ± 0.034
6,GCTAGGGCGT,0.972 ± 0.051
7,TGTGGGTGTT,0.961 ± 0.011
8,ATTTTATACA,0.996 ± 0.03
9,TGGGTATGTG,0.972 ± 0.038
10,GTTGGGTAGG,0.963 ± 0.028
11,TGCAGCATCA,1.11 ± 0.012
12,ATATGCCCT,1.04 ± 0.03
13,TACGAAATTG,1.06 ± 0.049
14,TAAGAAGTAT,0.999 ± 0.034
15,CATAGGTCAT,1.03 ± 0.058
16,TGGTTTTGGG,0.992 ± 0.021
17,AAAGGGGTCG,1.07 ± 0.036
18,CCATTTGTGT,0.976 ± 0.023
19,TAACCACCGG,1.03 ± 0.011
20,TTTCGGAAAG,0.967 ± 0.042
21,AGGACGGGGA,0.99 ± 0.019
22,GTTGTTAGGG,1 ± 0.0046
23,GCGTGGAGGA,1.05 ± 0.026
24,AGGGCGGGAT,0.965 ± 0.049
25,CGGGAACATT,1.01 ± 0.017

row,Sequence,switch fluorescence ratio
1,TGAGAAGGAA,1.033 ± 0.0093
2,GTTGGTATAG,1.01 ± 0.025
3,TTTGAGTAAG,1.02 ± 0.046
4,GGGAATGTTT,0.978 ± 0.03
5,TAGTTTGATG,0.986 ± 0.017
6,TGTTATTTTT,1 ± 0.041
7,GGTGCACGGT,0.978 ± 0.051
8,TTAGGTGCGT,1.08 ± 0.028
9,GTGTTAGGTT,1.01 ± 0.017
10,ACCGTTTTTT,1 ± 0.017
11,CGTTGATGGT,0.992 ± 0.02
12,GTGGATTGGA,1.05 ± 0.024
13,TTTGTTCGGC,1 ± 0.033
14,AAGCATGTTG,0.966 ± 0.021
15,TTTGGTTCTC,0.977 ± 0.012
16,GGCGCGTTAG,1.02 ± 0.06
17,AAGGGGATTG,0.986 ± 0.042
18,CCGGGTATTG,1.027 ± 0.0036
19,CCAAATTTAA,1.03 ± 0.01
20,ATGAACGTTT,1.2 ± 0.28
21,ACAAAGTGTG,1.03 ± 0.035
22,GGGAGCCCGG,0.989 ± 0.038
23,CATAGGCTGG,0.985 ± 0.016
24,GGGGGCGTAT,1.051 ± 0.0072
25,TGGCTGGGCT,1.03 ± 0.05

row,Sequence,switch fluorescence ratio
1,AGATAGAAGG,0.995 ± 0.012
2,TTCCTAATGG,1.04 ± 0.046
3,TTGCTCGTCG,1.04 ± 0.0046
4,TGACTATT,0.9948 ± 0.004
5,TACCCTGAAA,1.022 ± 0.0035
6,AAAGTATTTT,1.03 ± 0.067
7,GAAATAGGGC,0.997 ± 0.0058
8,TTGTTCGATT,1 ± 0.034
9,TTCGTGAACG,1 ± 0.071
10,CGTGTTTGCG,0.985 ± 0.031
11,TAGGGGTGGG,1.0453 ± 0.00085
12,GGGCGTTTCA,1.02 ± 0.02
13,TATAGGTATG,1.01 ± 0.012
14,TTGGCATACG,1.06 ± 0.034
15,AATGTAGACT,1.017 ± 0.0084
16,CTTCGTGGCC,1.04 ± 0.036
17,CTTATAGTGC,0.974 ± 0.0023
18,AATGTTGTTT,0.976 ± 0.02
19,GGGTAAATTT,0.996 ± 0.015
20,GACGCGGTTC,5.13 ± 0.77
21,CGTTGGGGCA,1 ± 0.077
22,GGGAACGGAA,2.4 ± 1.8
23,TAAGAAGGTC,1.01 ± 0.054
24,GCAAAAATGC,1.03 ± 0.031
25,GGGGGGGCTA,0.9868 ± 0.0035

row,Sequence,switch fluorescence ratio
1,TGGCTGCTGG,0.949 ± 0.013
2,TTGAGTTATT,0.96 ± 0.031
3,GATAGTGATA,1.01 ± 0.019
4,TTCAATGGTG,1.023 ± 0.0014
5,CTTGTTGTAT,1.01 ± 0.02
6,TATAGGGCC,1 ± 0.017
7,CGCACCGGTG,1.02 ± 0.032
8,TTCAGCAGAG,1.41 ± 0.59
9,GCATTCGATG,0.981 ± 0.013
10,AGGATAGGGT,1.02 ± 0.05
11,ATACTGGGGT,1.04 ± 0.056
12,ATAGGCGTCG,0.967 ± 0.032
13,AACAGGACAT,1.06 ± 0.017
14,CGTAGGAGGA,0.98 ± 0.036
15,CTCAAATATG,1.002 ± 0.0051
16,GAAGTGGGGG,1.01 ± 0.042
17,TTGGGGCTTA,1.03 ± 0.038
18,GTTTAAAATC,0.99757 ± 0.00014
19,TGTAGAGGGT,0.976 ± 0.029
20,AGGGTGATTA,1.01 ± 0.018
21,GGATATCGAG,0.9982 ± 0.0069
22,TTAAATAAAA,0.999 ± 0.028
23,AATATAGGGG,0.996 ± 0.017
24,AAAAAAGCAG,1.024 ± 0.0014
25,TTTTTCGAGG,0.997 ± 0.025
